In US20250243261A1:

Key:
[1] = target: full-length Ebola GP on pseudotyped lentivirus (Zaire ebolavirus) (UniProt Q05320); assay: cell-based or functional assay
[2] = target: HA H4 Hubei, A/swine/Hubei/06/2009(H4N1) (Influenza A virus)

Binder	Ebola GP pseudotyped lentivirus IC50 [1] [nM]	Kd [2] [nM]
mAb114 VH D42G-A68T-S79Y IgG (antibody, V domains shown) VH: EVQLVESGGGLIQPGGSLRLSCAASGFALRMYDMHWVRQTIGKRLEWVSAVGPSGDTYYADSVKGRFTVSRENAKNSLYLQMNSLTAGDTAIYYCVRSDRGVAGLFDSWGQGILVTVSS VL: DIQMTQSPSSLSASVGDRITITCRASQAFDNYVAWYQQRPGKVPKLLISAASALHAGVPSRFSGSGSGTHFTLTISSLQPEDVATYYCQNYNSAPLTFGGGTKVEIK	1.2	
mAb114 VH I41P-D42G-A68T-S79Y-I113T IgG (antibody, V domains shown) VH: EVQLVESGGGLIQPGGSLRLSCAASGFALRMYDMHWVRQTPGKRLEWVSAVGPSGDTYYADSVKGRFTVSRENAKNSLYLQMNSLTAGDTAIYYCVRSDRGVAGLFDSWGQGTLVTVSS VL: DIQMTQSPSSLSASVGDRITITCRASQAFDNYVAWYQQRPGKVPKLLISAASALHAGVPSRFSGSGSGTHFTLTISSLQPEDVATYYCQNYNSAPLTFGGGTKVEIK	1.2	
mAb114 VH A68T-I113T / VL V43A IgG (antibody, V domains shown) VH: EVQLVESGGGLIQPGGSLRLSCAASGFALRMYDMHWVRQTIDKRLEWVSAVGPSGDTYYADSVKGRFTVSRENAKNSLSLQMNSLTAGDTAIYYCVRSDRGVAGLFDSWGQGTLVTVSS VL: DIQMTQSPSSLSASVGDRITITCRASQAFDNYVAWYQQRPGKAPKLLISAASALHAGVPSRFSGSGSGTHFTLTISSLQPEDVATYYCQNYNSAPLTFGGGTKVEIK	1.1	
mAb114 VH A68T-E72D-S79Y-I113T / VL V43A IgG (antibody, V domains shown) VH: EVQLVESGGGLIQPGGSLRLSCAASGFALRMYDMHWVRQTIDKRLEWVSAVGPSGDTYYADSVKGRFTVSRDNAKNSLYLQMNSLTAGDTAIYYCVRSDRGVAGLFDSWGQGTLVTVSS VL: DIQMTQSPSSLSASVGDRITITCRASQAFDNYVAWYQQRPGKAPKLLISAASALHAGVPSRFSGSGSGTHFTLTISSLQPEDVATYYCQNYNSAPLTFGGGTKVEIK	1.2	
mAb114 VH I41P-D42G-A68T-S79Y-I113T / VL V43A IgG (antibody, V domains shown) VH: EVQLVESGGGLIQPGGSLRLSCAASGFALRMYDMHWVRQTPGKRLEWVSAVGPSGDTYYADSVKGRFTVSRENAKNSLYLQMNSLTAGDTAIYYCVRSDRGVAGLFDSWGQGTLVTVSS VL: DIQMTQSPSSLSASVGDRITITCRASQAFDNYVAWYQQRPGKAPKLLISAASALHAGVPSRFSGSGSGTHFTLTISSLQPEDVATYYCQNYNSAPLTFGGGTKVEIK	1	
MEDI8852 UCA VH V65P/VL G95P IgG (antibody, V domains shown) VH: QVQLQQSGPGLVKPSQTLSLTCAISGDSVSSNSAAWNWIRQSPSRGLEWLGRTYYRSKWYNDYAPSVKSRITINPDTSKNQFSLQLNSVTPEDTAVYYCARGGHITIFGVNIDAFDIWGQGTMVTVSS VL: DIQMTQSPSSLSASVGDRVTITCRASQSISSYLNWYQQKPGKAPKLLIYAASSLQSGVPSRFSGSGSGTDFTLTISSLQPEDFATYYCQQSRTFPQGTKVEIK		100
